This is an account of results in publication PMC4887914, “The Sp1-mediaded allelic regulation of MMP13 expression by an ESCC susceptibility SNP rs2252070”.

In this data set the target is Sp1 (UniProt P08047 2-785). In words: EMSA; recombinant Sp1; supershift with Sp1 antibody; LightShift Chemiluminescent EMSA kit (Pierce), 25 °C, 20 min, 6% PAGE; 100-fold unlabeled competitor; buffer, salt and pH not stated. Conditions: protein: commercial; label: 3' biotin; blunt. (In general: Mobility shift assays separate free from complexed probe on a gel.)
Sequence of Sp1 (P08047 2-785): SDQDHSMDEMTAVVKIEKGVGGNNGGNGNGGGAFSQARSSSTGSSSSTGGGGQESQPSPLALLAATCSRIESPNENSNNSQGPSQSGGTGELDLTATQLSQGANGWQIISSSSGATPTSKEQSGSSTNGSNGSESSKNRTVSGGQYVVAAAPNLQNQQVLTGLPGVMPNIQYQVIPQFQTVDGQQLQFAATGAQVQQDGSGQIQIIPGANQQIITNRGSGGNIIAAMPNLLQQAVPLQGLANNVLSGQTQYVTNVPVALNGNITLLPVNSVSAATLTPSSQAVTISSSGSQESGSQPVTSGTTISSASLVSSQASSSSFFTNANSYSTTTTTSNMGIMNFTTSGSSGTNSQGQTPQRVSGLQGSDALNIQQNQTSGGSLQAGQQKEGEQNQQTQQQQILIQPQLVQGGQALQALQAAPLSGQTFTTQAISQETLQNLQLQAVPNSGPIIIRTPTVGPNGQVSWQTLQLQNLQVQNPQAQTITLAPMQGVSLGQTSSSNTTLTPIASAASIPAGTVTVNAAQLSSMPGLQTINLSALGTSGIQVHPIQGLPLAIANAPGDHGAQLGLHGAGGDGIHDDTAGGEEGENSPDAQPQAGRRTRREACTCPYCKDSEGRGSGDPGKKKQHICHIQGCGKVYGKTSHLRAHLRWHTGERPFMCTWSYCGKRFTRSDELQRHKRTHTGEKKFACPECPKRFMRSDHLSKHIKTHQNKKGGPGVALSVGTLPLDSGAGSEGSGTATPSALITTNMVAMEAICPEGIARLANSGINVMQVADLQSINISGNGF

B1: MMP13 rs2252070G probe (dsDNA)
DNA 1: CCTTCAAGTGACTGGGAAGTGGAAACCT
DNA 2: AGGTTTCCACTTCCCAGTCACTTGAAGG
Regarding B1, the binding result is “binds”.
